From patent US6479237 (INSTITUT NATIONAL DE LA SANTE ET DE LA RECHERCHE MEDICALE …, dated 2002)

B1: VP16 fused with p34 (other)
chain: MVSDEDELNLLVIVVDANPIWWGKQALKESQFTLSKCIDAVMVLGNSHLFMNRSNKLAVIASHIQESRFLYPGKNGRLGDFFGDPGNPPEFNPSGSKDGKYELLTSANEVIVEEIKDLMTKSDIKGQHTETLLAGSLAKALCYIHRMNKEVKDNQEMKSRILVIKAAEDSALQYMNFMNVIFAAQKQNILIDACVLDSDSGLLQQACDITGGLYLKVPQMPSLLQYLLWVFLPDQDQRSQLILPPPVHVDYRAACFCHRNLIEIGYVCSVCLSIFCNFSPICTTCETAFKISLPPVLKAKKKKLKVSA
notes: One of the five TFIIH core sub-units put into pVP16 as specificity controls
B2: LexA-Cdk7 (other, UniProt P0A7C2 1-202, looked up)
chain: MKALTARQQEVFDLIRDHISQTGMPPTRAEIAQRLGFRSPNAAEEHLKALARKGVIEIVSGASRGIRLLQEEEEGLPLVGRVAAGEPLLAQQHIEGHYQVDPSLFKPNADFLLRVSGMSMKDIGIMDGDLLAVHKTQDVRNGQVVVARIDDEVTVKRLKKQGNKVELLPENSEFKPIVVDLRQQSFTIEGLAVGVIRNGDWLMALDVKSRAKRYEKLDFLGEGQFATVYKARDKNTNQIVAIKKIKLGHRSEAKDGINRTALREIKLLQELSHPNIIGLLDAFGHKSNISLVFDFMETDLEVIIKDNSLVLTPSHIKAYMLMTLQGLEYLHQHWILHRDLKPNNLLLDENGVLKLADFGLAKSFGSPNRAYTHQVVTRWYRAPELLFGARMYGVGVDMWAVGCILAELLLRVPFLPGDSDLDQLTRIFETLGTPTEEQWPDMCSLPDYVTFKSFPGIPLHHIFSAAGDDLLDLIQGLFLFNPCARITATQALKMKYFSNRPGPTPGCQLPRPNCPVETLKEQSNPALAIKRKRTEALEQGGLPKKLIF
notes: Fusion protein expressed in yeast L40 from the ADH constitutive promoter; also called Lex-Cdk7
B3: VP16 fused with p44 (other)
chain: MDEEPERTKRWEGGYERTWEILKEDESGSLKATIEDILFKAKRKRVFEHHGQVRLGMMRHLYVVVDGSRTMEDQDLKPNRLTCTLKLLEYFVEEYFDQNPISQIGIIVTKSKRAEKLTELSGNPRKHITSLKKAVDMTCHGEPSLYNSLSIAMQTLKHMPGHTSREVLIIFSSLTTCDPSNIYDLIKTLKAAKIRVSVIGLSAEVRVCTVLARETGGTYHVILDESHYKELLTHHVSPPPASSSSECSLIRMGFPQHTIASLSDQDAKPSFSMAHLDGNTEPGLTLGGYFCPQCRAKYCELPVECKICGLTLVSAPHLARSYHHLFPLDAFQEIPLEEYNGERFCYGCQGELKDQHVYVCAVCQNVFCVDCDVFVHDSLHCCPGCIHKIPAPSGV
notes: as for B1
B4: VP16-MAT1 (other)
chain: STAPPTDVSLGDELHLDGEDVAMAHADALDDFDLDMLGDGDSPGPGFTPHDSAPYGALDMADFEFEQMFTDALGIDEYGGMDDQGCPRCKTTKYRNPSLKLMVNVCGHTLCESCVDLLFVRGAGNCPECGTPLRKSNFRVQLFEDPTVDKEVEIRKKVLKIYNKREEDFPSLREYNDFLEEVEEIVFNLTNNVDLDNTKKKMEIYQKENKDVIQKNKLKLTREQEELEEALEVERQENEQRRLFIQKEEQLQQILKRKNKQAFLDELESSDLPVALLLAQHKDRSTQLEMQLEKPKPVKPVTFSTGIKMGQHISLAPIHKLEEALYEYQPLQIETYGPHVPELEMLGRLGYLNHVRAASPQDLAGGYTSSLACHRALQDAFSGLFWQPS
B5: VP16 alone (not containing any fused protein) (other)
chain: STAPPTDVSLGDELHLDGEDVAMAHADALDDFDLDMLGDGDSPGPGFTPHDSAPYGALDMADFEFEQMFTDALGIDEYGG
notes: Negative control

Legend:
LexA-Cdk7 [1] = target: B2; assay: yeast three-hybrid (L40), LexA-Cdk7 with Cyclin H expressed; growth test and β-galactosidase test
VP16 fused with XPD = target: T1, VP16 fused with XPD (UniProt P18074 1-760); assay: as above
T1 construct: One of the five TFIIH core sub-units put into pVP16 as specificity controls

VP16 fused with XPB = target: T2, VP16 fused with XPB (UniProt P19447 1-782); assay: as above
T2 construct: One of the five TFIIH core sub-units put into pVP16 as specificity controls
T2 sequence (P19447 whole entry, the tested form may be a part): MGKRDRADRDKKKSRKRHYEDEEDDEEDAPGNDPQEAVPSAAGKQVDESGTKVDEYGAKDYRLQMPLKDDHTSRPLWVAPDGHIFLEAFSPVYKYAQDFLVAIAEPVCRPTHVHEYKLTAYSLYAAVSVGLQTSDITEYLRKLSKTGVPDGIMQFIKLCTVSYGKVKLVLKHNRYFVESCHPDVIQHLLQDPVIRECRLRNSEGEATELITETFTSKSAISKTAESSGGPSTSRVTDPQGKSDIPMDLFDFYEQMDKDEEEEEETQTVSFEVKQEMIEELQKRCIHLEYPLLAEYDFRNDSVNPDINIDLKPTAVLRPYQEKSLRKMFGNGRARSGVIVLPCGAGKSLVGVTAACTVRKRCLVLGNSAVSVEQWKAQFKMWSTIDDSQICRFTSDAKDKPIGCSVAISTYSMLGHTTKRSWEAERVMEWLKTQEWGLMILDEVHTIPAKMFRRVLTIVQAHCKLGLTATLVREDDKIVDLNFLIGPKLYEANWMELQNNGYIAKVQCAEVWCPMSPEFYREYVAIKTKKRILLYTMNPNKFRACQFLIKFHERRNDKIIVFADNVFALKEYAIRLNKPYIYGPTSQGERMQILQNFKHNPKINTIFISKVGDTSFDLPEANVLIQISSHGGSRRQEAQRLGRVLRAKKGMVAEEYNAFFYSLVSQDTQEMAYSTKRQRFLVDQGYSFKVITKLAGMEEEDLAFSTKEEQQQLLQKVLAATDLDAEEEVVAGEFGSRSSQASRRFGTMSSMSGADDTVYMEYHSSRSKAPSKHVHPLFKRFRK

LexA-Cdk7 [2] = target: B2; assay: cell-based or functional assay

| Binder | binding result (LexA-Cdk7 [1]) | further results |
| --- | --- | --- |
| B1 | no binding | – |
| B2 | – | binding result (VP16 fused with XPD): no binding; binding result (VP16 fused with XPB): no binding |
| B3 | no binding | – |
| B4 | – | inhibition of the β-Gal activity by methionine (repression of Cyclin H) (LexA-Cdk7 [2]): > 6 fold |
| B5 | no binding | – |
